Measurements as given in US20230110958A1 (Regeneron, published 2023).
Substitutions are numbered along the chain they refer to.

T1: murine IL27 receptor (IL27Ra and gp130) on mouse cells (MC9/STAT3-Luc reporter cells; splenic CD4+ T cells) (mouse, UniProt O70394 25-623; Q00560 23-917)
T1 sequence (looked up) 1: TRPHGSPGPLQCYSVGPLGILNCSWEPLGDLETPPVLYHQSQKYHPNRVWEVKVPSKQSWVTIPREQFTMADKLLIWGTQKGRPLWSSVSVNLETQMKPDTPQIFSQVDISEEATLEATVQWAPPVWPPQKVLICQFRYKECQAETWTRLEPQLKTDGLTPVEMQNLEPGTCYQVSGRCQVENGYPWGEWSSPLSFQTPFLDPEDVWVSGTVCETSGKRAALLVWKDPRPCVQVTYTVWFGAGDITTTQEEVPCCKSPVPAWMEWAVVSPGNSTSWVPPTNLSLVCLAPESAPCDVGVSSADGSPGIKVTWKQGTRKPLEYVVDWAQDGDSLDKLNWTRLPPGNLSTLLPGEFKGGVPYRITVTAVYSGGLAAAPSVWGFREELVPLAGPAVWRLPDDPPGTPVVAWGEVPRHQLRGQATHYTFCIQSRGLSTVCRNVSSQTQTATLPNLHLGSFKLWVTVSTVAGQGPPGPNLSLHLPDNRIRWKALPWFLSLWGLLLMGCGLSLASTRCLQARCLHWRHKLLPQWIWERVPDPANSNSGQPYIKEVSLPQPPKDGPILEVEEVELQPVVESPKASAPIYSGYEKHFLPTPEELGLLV
T1 sequence (looked up) 2: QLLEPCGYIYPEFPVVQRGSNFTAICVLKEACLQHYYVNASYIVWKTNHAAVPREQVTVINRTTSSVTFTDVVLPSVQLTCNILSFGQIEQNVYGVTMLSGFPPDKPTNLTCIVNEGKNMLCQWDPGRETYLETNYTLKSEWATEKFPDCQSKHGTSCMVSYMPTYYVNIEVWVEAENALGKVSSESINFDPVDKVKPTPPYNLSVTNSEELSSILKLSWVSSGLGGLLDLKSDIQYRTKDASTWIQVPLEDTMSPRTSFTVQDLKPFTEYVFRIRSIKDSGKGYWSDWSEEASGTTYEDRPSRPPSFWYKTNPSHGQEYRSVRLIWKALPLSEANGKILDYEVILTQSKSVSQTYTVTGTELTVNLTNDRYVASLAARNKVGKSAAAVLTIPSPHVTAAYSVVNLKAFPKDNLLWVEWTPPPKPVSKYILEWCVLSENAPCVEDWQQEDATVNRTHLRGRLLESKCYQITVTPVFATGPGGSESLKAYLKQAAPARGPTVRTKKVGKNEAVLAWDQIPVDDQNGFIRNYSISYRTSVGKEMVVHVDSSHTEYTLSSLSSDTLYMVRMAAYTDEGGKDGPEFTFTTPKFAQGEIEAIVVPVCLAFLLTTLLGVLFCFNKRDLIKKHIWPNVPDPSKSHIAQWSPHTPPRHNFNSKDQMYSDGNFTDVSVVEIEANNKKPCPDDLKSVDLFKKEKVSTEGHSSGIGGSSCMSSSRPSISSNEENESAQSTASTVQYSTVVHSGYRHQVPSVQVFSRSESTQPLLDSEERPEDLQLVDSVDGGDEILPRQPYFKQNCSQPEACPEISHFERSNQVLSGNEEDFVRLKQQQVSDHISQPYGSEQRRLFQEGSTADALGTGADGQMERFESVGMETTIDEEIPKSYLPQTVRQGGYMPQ

B1: IL27M13, Bivalent p28-Fc (Fc fusion)
chain: FPTDPLSLQELRREFTVSLYLARKLLSEVQGYVHSFAESRLPGVNLDLLPLGYHLPNVSLTFQAWHHLSDSERLCFLATTLRPFPAMLGGLGTQGTWTSSEREQLWAMRLDLRDLHRHLRFQVLAAGFKCSKEEEDKEEEEEEEEEEKKLPLGALGGPNQVSSQVSWPQLLYTYQLLHSLELVLSRAVRDLLLLSLPRRPGSAWDSGGGGSGGGGSGGGGSESKYGPPCPPCPAPPVAGPSVFLFPPKPKDTLMISRTPEVTCVVVDVSQEDPEVQFNWYVDGVEVHNAKTKPREEQFNSTYRVVSVLTVLHQDWLNGKEYKCKVSNKGLPSSIEKTISKAKGQPREPQVYTLPPSQEEMTKNQVSLTCLVKGFYPSDIAVEWESNGQPENNYKTTPPVLDSDGSFFLYSRLTVDKSRWQEGNVFSCSVMHEALHNHYTQKSLSLSLGK
B2: IL27M6, monovalent Fc-p28 x EBI3 (Fc fusion)
chain 1: ESKYGPPCPPCPAPPVAGPSVFLFPPKPKDTLMISRTPEVTCVVVDVSQEDPEVQFNWYVDGVEVHNAKTKPREEQFNSTYRVVSVLTVLHQDWLNGKEYKCKVSNKGLPSSIEKTISKAKGQPREPQVYTLPPSQEEMTKNQVSLWCLVKGFYPSDIAVEWESNGQPENNYKTTPPVLDSDGSFFLYSRLTVDKSRWQEGNVFSCSVMHEALHNHYTQKSLSLSLGKGGGGSGGGGSGGGGSFPTDPLSLQELRREFTVSLYLARKLLSEVQGYVHSFAESRLPGVNLDLLPLGYHLPNVSLTFQAWHHLSDSERLCFLATTLRPFPAMLGGLGTQGTWTSSEREQLWAMRLDLRDLHRHLRFQVLAAGFKCSKEEEDKEEEEEEEEEEKKLPLGALGGPNQVSSQVSWPQLLYTYQLLHSLELVLSRAVRDLLLLSLPRRPGSAWDS
chain 2: ESKYGPPCPPCPAPPVAGPSVFLFPPKPKDTLMISRTPEVTCVVVDVSQEDPEVQFNWYVDGVEVHNAKTKPREEQFNSTYRVVSVLTVLHQDWLNGKEYKCKVSNKGLPSSIEKTISKAKGQPREPQVYTLPPSQEEMTKNQVSLSCAVKGFYPSDIAVEWESNGQPENNYKTTPPVLDSDGSFFLVSRLTVDKSRWQEGNVFSCSVMHEALHNRFTQKSLSLSPGKGGGGSGGGGSGGGGSYTETALVALSQPRVQCHASRYPVAVDCSWTPLQAPNSTRSTSFIATYRLGVATQQQSQPCLQRSPQASRCTIPDVHLFSTVPYMLNVTAVHPGGASSSLLAFVAERIIKPDPPEGVRLRTAGQRLQVLWHPPASWPFPDIFSLKYRLRYRRRGASHFRQVGPIEATTFTLRNSKPHAKYCIQVSAQDLTDYGKPSDWSLPGQVESAPHKP
B3: IL27M17, Bivalent Fc-p28 (Fc fusion)
chain: B2 chain 1 with W147T
B4: IL27M3, Bivalent p28-EBI3-Fc (Fc fusion)
chain: FPTDPLSLQELRREFTVSLYLARKLLSEVQGYVHSFAESRLPGVNLDLLPLGYHLPNVSLTFQAWHHLSDSERLCFLATTLRPFPAMLGGLGTQGTWTSSEREQLWAMRLDLRDLHRHLRFQVLAAGFKCSKEEEDKEEEEEEEEEEKKLPLGALGGPNQVSSQVSWPQLLYTYQLLHSLELVLSRAVRDLLLLSLPRRPGSAWDSGGGGSGGGGSGGGGSGGGGSGGGGSYTETALVALSQPRVQCHASRYPVAVDCSWTPLQAPNSTRSTSFIATYRLGVATQQQSQPCLQRSPQASRCTIPDVHLFSTVPYMLNVTAVHPGGASSSLLAFVAERIIKPDPPEGVRLRTAGQRLQVLWHPPASWPFPDIFSLKYRLRYRRRGASHFRQVGPIEATTFTLRNSKPHAKYCIQVSAQDLTDYGKPSDWSLPGQVESAPHKPGGGGSGGGGSGGGGSESKYGPPCPPCPAPPVAGPSVFLFPPKPKDTLMISRTPEVTCVVVDVSQEDPEVQFNWYVDGVEVHNAKTKPREEQFNSTYRVVSVLTVLHQDWLNGKEYKCKVSNKGLPSSIEKTISKAKGQPREPQVYTLPPSQEEMTKNQVSLTCLVKGFYPSDIAVEWESNGQPENNYKTTPPVLDSDGSFFLYSRLTVDKSRWQEGNVFSCSVMHEALHNHYTQKSLSLSLGK
B5: IL27M4, Bivalent Fc-EBI3-p28 (Fc fusion)
chain: ESKYGPPCPPCPAPPVAGPSVFLFPPKPKDTLMISRTPEVTCVVVDVSQEDPEVQFNWYVDGVEVHNAKTKPREEQFNSTYRVVSVLTVLHQDWLNGKEYKCKVSNKGLPSSIEKTISKAKGQPREPQVYTLPPSQEEMTKNQVSLTCLVKGFYPSDIAVEWESNGQPENNYKTTPPVLDSDGSFFLYSRLTVDKSRWQEGNVFSCSVMHEALHNHYTQKSLSLSLGKGGGGSGGGGSGGGGSYTETALVALSQPRVQCHASRYPVAVDCSWTPLQAPNSTRSTSFIATYRLGVATQQQSQPCLQRSPQASRCTIPDVHLFSTVPYMLNVTAVHPGGASSSLLAFVAERIIKPDPPEGVRLRTAGQRLQVLWHPPASWPFPDIFSLKYRLRYRRRGASHFRQVGPIEATTFTLRNSKPHAKYCIQVSAQDLTDYGKPSDWSLPGQVESAPHKPGGGGSGGGGSGGGGSGGGGSFPTDPLSLQELRREFTVSLYLARKLLSEVQGYVHSFAESRLPGVNLDLLPLGYHLPNVSLTFQAWHHLSDSERLCFLATTLRPFPAMLGGLGTQGTWTSSEREQLWAMRLDLRDLHRHLRFQVLAAGFKCSKEEEDKEEEEEEEEEEKKLPLGALGGPNQVSSQVSWPQLLYTYQLLHSLELVLSRAVRDLLLLSLPRRPGSAWDS
B6: IL27M12, monovalent EBI3-p28 x Fc (Fc fusion)
chain 1: YTETALVALSQPRVQCHASRYPVAVDCSWTPLQAPNSTRSTSFIATYRLGVATQQQSQPCLQRSPQASRCTIPDVHLFSTVPYMLNVTAVHPGGASSSLLAFVAERIIKPDPPEGVRLRTAGQRLQVLWHPPASWPFPDIFSLKYRLRYRRRGASHFRQVGPIEATTFTLRNSKPHAKYCIQVSAQDLTDYGKPSDWSLPGQVESAPHKPGGGGSGGGGSGGGGSGGGGSFPTDPLSLQELRREFTVSLYLARKLLSEVQGYVHSFAESRLPGVNLDLLPLGYHLPNVSLTFQAWHHLSDSERLCFLATTLRPFPAMLGGLGTQGTWTSSEREQLWAMRLDLRDLHRHLRFQVLAAGFKCSKEEEDKEEEEEEEEEEKKLPLGALGGPNQVSSQVSWPQLLYTYQLLHSLELVLSRAVRDLLLLSLPRRPGSAWDSGGGGSGGGGSGGGGSESKYGPPCPPCPAPPVAGPSVFLFPPKPKDTLMISRTPEVTCVVVDVSQEDPEVQFNWYVDGVEVHNAKTKPREEQFNSTYRVVSVLTVLHQDWLNGKEYKCKVSNKGLPSSIEKTISKAKGQPREPQVYTLPPSQEEMTKNQVSLWCLVKGFYPSDIAVEWESNGQPENNYKTTPPVLDSDGSFFLYSRLTVDKSRWQEGNVFSCSVMHEALHNHYTQKSLSLSLGK
chain 2: ESKYGPPCPPCPAPPVAGPSVFLFPPKPKDTLMISRTPEVTCVVVDVSQEDPEVQFNWYVDGVEVHNAKTKPREEQFNSTYRVVSVLTVLHQDWLNGKEYKCKVSNKGLPSSIEKTISKAKGQPREPQVYTLPPSQEEMTKNQVSLSCAVKGFYPSDIAVEWESNGQPENNYKTTPPVLDSDGSFFLVSRLTVDKSRWQEGNVFSCSVMHEALHNRFTQKSLSLSPGK
B7: IL27M5, Bivalent Fc-p28-EBI3 (Fc fusion)
chain: ESKYGPPCPPCPAPPVAGPSVFLFPPKPKDTLMISRTPEVTCVVVDVSQEDPEVQFNWYVDGVEVHNAKTKPREEQFNSTYRVVSVLTVLHQDWLNGKEYKCKVSNKGLPSSIEKTISKAKGQPREPQVYTLPPSQEEMTKNQVSLTCLVKGFYPSDIAVEWESNGQPENNYKTTPPVLDSDGSFFLYSRLTVDKSRWQEGNVFSCSVMHEALHNHYTQKSLSLSLGKGGGGSGGGGSGGGGSFPTDPLSLQELRREFTVSLYLARKLLSEVQGYVHSFAESRLPGVNLDLLPLGYHLPNVSLTFQAWHHLSDSERLCFLATTLRPFPAMLGGLGTQGTWTSSEREQLWAMRLDLRDLHRHLRFQVLAAGFKCSKEEEDKEEEEEEEEEEKKLPLGALGGPNQVSSQVSWPQLLYTYQLLHSLELVLSRAVRDLLLLSLPRRPGSAWDSGGGGSGGGGSGGGGSGGGGSGGGGSYTETALVALSQPRVQCHASRYPVAVDCSWTPLQAPNSTRSTSFIATYRLGVATQQQSQPCLQRSPQASRCTIPDVHLFSTVPYMLNVTAVHPGGASSSLLAFVAERIIKPDPPEGVRLRTAGQRLQVLWHPPASWPFPDIFSLKYRLRYRRRGASHFRQVGPIEATTFTLRNSKPHAKYCIQVSAQDLTDYGKPSDWSLPGQVESAPHKP

Target: T1, murine IL27 receptor (IL27Ra and gp130) …
Assay: cell-based or functional assay

Row | FOLD INDUCTION, STAT3 luciferase, MC9 cells [fold] | EC50 (M), STAT3 luciferase, MC9 cells [M] | Binder
1 | 1.11 |  | B1
2 | 2.8 | 3.21e-11 | B2
3 | 1.16 |  | B3
4 | 3.02 | 8.63e-10 | B4
5 | 2.78 | 4.71e-10 | B5
6 | 2.68 | 1.22e-11 | B6
7 | 2.91 | 4.19e-10 | B7
